# pKd: −log10 of the molar value.
# Experiments:
# IDH1 = IDH1 (UniProt O75874); assay: co-IP of Flag-IDH1 and HA-IDH1; details: reference: Flag-IDH1 wild type, MPA; sites T77
# OCT6 (POU3F1) = OCT6 (POU3F1) (UniProt Q03052); assay: co-immunoprecipitation; details: reference: wild type, MPA; sites T77
# isocitrate (ICT) = assay: SPR; details: 1:1 binding model
# UniProt O75874, sequence (O75874 whole entry T77A): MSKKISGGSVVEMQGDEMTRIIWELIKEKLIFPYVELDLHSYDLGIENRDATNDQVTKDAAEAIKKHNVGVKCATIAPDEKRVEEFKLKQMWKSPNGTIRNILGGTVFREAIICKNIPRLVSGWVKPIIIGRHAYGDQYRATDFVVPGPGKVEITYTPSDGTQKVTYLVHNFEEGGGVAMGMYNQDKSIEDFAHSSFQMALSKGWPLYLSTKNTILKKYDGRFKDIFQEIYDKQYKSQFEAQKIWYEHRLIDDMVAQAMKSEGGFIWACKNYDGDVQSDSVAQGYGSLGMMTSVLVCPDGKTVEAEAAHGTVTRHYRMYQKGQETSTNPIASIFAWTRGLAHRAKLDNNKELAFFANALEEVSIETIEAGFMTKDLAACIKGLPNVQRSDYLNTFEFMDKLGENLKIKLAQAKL
substance,measurement,setting,value
"IDH1 (from UniProt O75874) Flag-IDH1 T77A, MPA",binding against the reference,IDH1,weaker
"IDH1 (from UniProt O75874) T77A, MPA",binding against the reference,OCT6 (POU3F1),weaker
recombinant IDH1 WT T77A,pKd,isocitrate (ICT),6.95
